Target: the molecule itself
Assay: Thioflavin T amyloid formation assay

B1: His-Lsm4^1–170 (domain or fragment)
chain: MLPLYLLTNAKGQQMQIELKNGEIIQGILTNVDNWMNLTLSNVTEYSEESAINSEDNAESSKAVKLNEIYIRGTFIKFIKLQDNIIDKVKQQINSNNNSNSNGPGHKRYYNNRDSNNNRGNYNRRNNNNGNSNRRPYSQNRQYNNSNSSNINNSINSINSNNQNMNNGLG
B1: binds.

— publication PMC3684756 (MicrobiologyOpen, 2013)
